Assay in all cases: yeast two-hybrid, mating, His3/LacZ reporters
Assay [1] concerns the target T1, Bait polypeptide of SEQ ID No 109, NS5B (100%), HCV strain H77 nt 7976-8759 (hepatitis C virus strain H77, UniProt P26664 2546-2805).
T1 construct: also called Bait NS5B (100%)

Assay [2] deals with T2, Bait polypeptide of SEQ ID No 80, E1 (4%)/E2 (95%), HCV strain H77 nt 1478-1756 (hepatitis C virus strain H77, UniProt P27958 380-470).
T2 construct: also called Bait E1 (4%)/E2 (95%)

The target in assay [3] is T3, SID polypeptide of SEQ ID No 8, NS4A (59%)/NS4B (40%), HCV strain H77 nt 5375-5542 (hepatitis C virus strain H77, UniProt P27958 1679-1732).
T3 construct: Intersection of yeast two-hybrid prey fragments; also called SID NS4A (59%)/NS4B (40%)
T3 sequence: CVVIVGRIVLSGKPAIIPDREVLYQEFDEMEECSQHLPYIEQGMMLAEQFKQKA

Assay [4] concerns the target T4, Bait polypeptide of SEQ ID No 107, NS5B (100%), HCV strain H77 nt 7838-8743 (hepatitis C virus strain H77, UniProt P26664 2500-2799).
T4 construct: also called Bait NS5B (100%)

In assay [5] the target is T5, SID polypeptide of SEQ ID No 31, NS5B (100%), HCV strain H77 nt 8354-8665 (hepatitis C virus strain H77, UniProt P26664 2672-2773).
T5 construct: Intersection of yeast two-hybrid prey fragments; also called SID NS5B (100%)

The target in assay [6] is T6, Bait polypeptide of SEQ ID No 84, NS3 (100%), HCV strain H77 nt 3767-4244 (hepatitis C virus strain H77, UniProt P27958 1143-1300).
T6 construct: also called Bait NS3 (100%)
T6 chain: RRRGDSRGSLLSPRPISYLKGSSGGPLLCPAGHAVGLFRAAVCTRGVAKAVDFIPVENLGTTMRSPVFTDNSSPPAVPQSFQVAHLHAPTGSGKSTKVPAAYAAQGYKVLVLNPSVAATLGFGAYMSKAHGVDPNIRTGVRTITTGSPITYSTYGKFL

The target in assay [7] is T7, Bait polypeptide of SEQ ID No 79, E1 (100%), HCV strain H77 nt 995-1342 (hepatitis C virus strain H77, UniProt P27958 219-332).
T7 construct: also called Bait E1 (100%)
T7 chain: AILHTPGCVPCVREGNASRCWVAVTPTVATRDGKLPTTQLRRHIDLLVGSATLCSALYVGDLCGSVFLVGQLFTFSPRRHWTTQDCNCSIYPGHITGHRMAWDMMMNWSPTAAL

The target of assay [8] is T8, SID polypeptide of SEQ ID No 30, NS4B (100%), HCV strain H77 nt 6029-6194 (hepatitis C virus strain H77, UniProt P26664 1897-1950).
T8 construct: Intersection of yeast two-hybrid prey fragments; also called SID NS4B (100%)
T8 sequence: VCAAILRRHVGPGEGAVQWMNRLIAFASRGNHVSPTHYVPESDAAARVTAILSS

The target of assay [9] is T9, SID polypeptide of SEQ ID No 29, NS3 (100%), HCV strain H77 nt 4451-4790 (hepatitis C virus strain H77, UniProt P27958 1371-1482).
T9 construct: Intersection of yeast two-hybrid prey fragments; also called SID NS3 (100%)
T9 sequence: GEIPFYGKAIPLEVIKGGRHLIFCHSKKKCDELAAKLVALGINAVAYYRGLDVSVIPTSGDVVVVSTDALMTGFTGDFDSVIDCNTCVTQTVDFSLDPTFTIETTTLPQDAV

Assay [10] deals with T10, SID polypeptide of SEQ ID No 33, NS3 (100%), HCV strain H77 nt 4715-4901 (hepatitis C virus strain H77, UniProt P27958 1459-1519).
T10 construct: Intersection of yeast two-hybrid prey fragments; also called SID NS3 (100%)
T10 sequence: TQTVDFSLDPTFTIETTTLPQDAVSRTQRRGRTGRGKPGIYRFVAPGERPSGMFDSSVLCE

In assay [11] the target is T11, Bait polypeptide of SEQ ID No 111, NS5B (100%), HCV strain H77 nt 8708-8978 (hepatitis C virus strain H77, UniProt P27958 2790-2878).
T11 construct: also called Bait NS5B (100%)

Assay [12] deals with T12, Bait polypeptide of SEQ ID No 112, NS5B (100%), HCV strain H77 nt 8996-9220 (hepatitis C virus strain H77, UniProt Q03463 2886-2958).
T12 construct: also called Bait NS5B (100%)

B1: SID polypeptide of SEQ ID No 34, NS5B (100%), HCV strain H77 nt 7775-8011 (other)
chain: not shown
notes: Intersection of yeast two-hybrid prey fragments; also called SID NS5B (100%)
With B1, the binding result in assay [1] was “binds”.

B2: SID polypeptide of SEQ ID No 5, NS3 (100%), HCV strain H77 nt 4787-5242 (other)
chain: SRTQRRGRTGRGKPGIYRFVAPGERPSGMFDSSVLCECYDAGCAWYELTPAETTVRLRAYMNTPGLPVCQDHLEFWEGVFTGLTHIDAHFLSQTKQSGENFPYLVAYQATVCARAQAPPPSWDQMWKCLIRLKPTLHGPTPLLYRLGAVQ
notes: Intersection of yeast two-hybrid prey fragments; also called SID NS3 (100%)
Turning to B2, in [2], the binding result is “binds”.

B3: Bait polypeptide of SEQ ID No 83, NS2 (12%)/NS3 (87%), HCV strain H77 nt 3312-4150 (other)
chain: AACGDIINGLPVSARRGQEILLGPADGMVSKGWRLLAPITAYAQQTRGLLGCIITSLTGRDKNQVEGEVQIVSTATQTFLATCINGVCWTVYHGAGTRTIASPKGPVIQMYTNVDQDLVGWPAPQGSRSLTPCTCGSSDLYLVTRHADVIPVRRRGDSRGSLLSPRPISYLKGSSGGPLLCPAGHAVGLFRAAVCTRGVAKAVDFIPVENLGTTMRSPVFTDNSSPPAVPQSFQVAHLHAPTGSGKSTKVPAAYAAQGYKVLVLNPSVAATLGFGAYM
notes: also called Bait NS2 (12%)/NS3 (87%)
For the molecule B3, in assay [3], the binding result is listed as “binds”.

B4: SID polypeptide of SEQ ID No 32, NS5B (100%), HCV strain H77 nt 7769-8011 (other)
chain: not shown
notes: as for B1
Regarding B4, the binding result in assay [4] is recorded as “binds”.

B5: Bait polypeptide of SEQ ID No 106, NS5B (100%), HCV strain H77 nt 7613-8027 (other)
chain: not shown
notes: also called Bait NS5B (100%)
For the molecule B5, the binding result in assay [5] is recorded as “binds”.

B6: SID polypeptide of SEQ ID No 9, NS3 (100%), HCV strain H77 nt 4676-4801 (other)
chain: GDFDSVIDCNTCVTQTVDFSLDPTFTIETTTLPQDAVSRT
notes: as for B2
For the molecule B6, the binding result in assay [6] is on record as “binds”.

B7: SID polypeptide of SEQ ID No 4, E2 (100%), HCV strain H77 nt 1871-1987 (other)
chain: PSPVVVGTTDRSGAPTYSWGANDTDVFVLNNTRPPLG
notes: Intersection of yeast two-hybrid prey fragments; also called SID E2 (100%)
With B7, the binding result in assay [7] is listed as “binds”.

B8: Bait polypeptide of SEQ ID No 105, NS5A (100%), HCV strain H77 nt 7274-7549 (other)
chain: HGCPLPPPRSPPVPPPRKKRTVVLTESTLSTALAELATKSFGSSSTSGITGDNTTTSSEPAPSGCPPDSDVESYSSMPPLEGEPGDPDLS
notes: also called Bait NS5A (100%)
Regarding B8, in assay [8], the binding result is “binds”.

B9: Bait polypeptide of SEQ ID No 104, NS5A (100%), HCV strain H77 nt 7019-7249 (other)
chain: IEANLLWRQEMGGNITRVESENKVVILDSFDPLVAEEDEREVSVPAEILRKSRRFARALPVWARPDYNPPLVETW
notes: also called Bait NS5A (100%)
For the molecule B9, the binding result in assay [9] is recorded as “binds”.

B10: Bait polypeptide of SEQ ID No 108, NS5B (100%), HCV strain H77 nt 7856-8458 (other)
chain: not shown
notes: also called Bait NS5B (100%)
On to B10, for which the binding result in assay [10] is reported as “binds”.

B11: SID polypeptide of SEQ ID No 36, E2 (100%), HCV strain H77 nt 1751-1865 (other)
chain: PISYANGSGLDERPYCWHYPPRPCGIVPAKSVCGPVY
notes: as for B7
As for B11, the binding result in [11] is reported as “binds”.

B12: SID polypeptide of SEQ ID No 37, NS4B (57%)/NS5A(41%), HCV strain H77 nt 6194-6303 (other)
chain: TVTQLLRRLHQWISSECTTPCSGSWLRDIWDWICE
notes: Intersection of yeast two-hybrid prey fragments; also called SID NS4B (57%)/NS5A(41%)
B12: in assay [12], the binding result is given as “binds”.

For the origin of these results see patent US20020151484A1 (HYBRIGENICS, published 2002).
